These results are taken from US20130336893A1 (Sanofi, published 2013).

*1 amine or outer side, *2 acyl side, *3 side chain or, on linkers, in order; H or OH if unused. Where no end group is shown, it is not given here. Side-chain parts run from the residue outwards. [ ]: non-standard residue; d: D form. The star is where a group is joined. γGlu = O=C(O)[C@H](CCC(=O)[*:2])N[*:1]; Stearoyl = CCCCCCCCCCCCCCCCCC(=O)*; Palmitoyl = CCCCCCCCCCCCCCCC(=O)*; Orn = NCCC[C@H](N)C(=O)O; Dab = NCC[C@H](N)C(=O)O; Dap = NC[C@H](N)C(=O)O; Aib = CC(C)(N)C(=O)O

In one assay the target is human GLP-1 receptor (human, UniProt P43220 24-463). Nature of the assay: cell-based or functional assay.
The target in another assay is human glucagon receptor (human, UniProt P47871 26-477). The assay is described as follows: cell-based or functional assay.
Sequence of human glucagon receptor (P47871 26-477): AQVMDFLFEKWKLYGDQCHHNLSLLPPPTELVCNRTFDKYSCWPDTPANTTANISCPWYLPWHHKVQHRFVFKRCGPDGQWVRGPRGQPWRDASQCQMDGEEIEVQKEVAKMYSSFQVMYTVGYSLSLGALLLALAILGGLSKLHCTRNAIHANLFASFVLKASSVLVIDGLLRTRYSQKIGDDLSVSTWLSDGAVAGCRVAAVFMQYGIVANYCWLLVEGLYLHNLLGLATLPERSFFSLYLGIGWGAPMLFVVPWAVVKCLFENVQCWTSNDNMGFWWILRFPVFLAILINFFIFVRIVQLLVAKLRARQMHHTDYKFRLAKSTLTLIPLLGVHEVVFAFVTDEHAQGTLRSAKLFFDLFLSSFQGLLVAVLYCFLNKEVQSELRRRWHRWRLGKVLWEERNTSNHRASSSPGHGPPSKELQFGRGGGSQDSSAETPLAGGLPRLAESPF

B1: SEQ ID NO: (90) (peptide)
peptide: H[dS]QGTFTSDLSKQMESRRAQDFIEWLKSGGPSSGAPPPS[Dap]([γGlu-Palmitoyl])-NH2
modifications: N-terminus assumed
SMILES: CCCCCCCCCCCCCCCC(=O)N[C@@H](CCC(=O)NC[C@H](NC(=O)[C@H](CO)NC(=O)[C@@H]1CCCN1C(=O)[C@@H]1CCCN1C(=O)[C@@H]1CCCN1C(=O)[C@H](C)NC(=O)CNC(=O)[C@H](CO)NC(=O)[C@H](CO)NC(=O)[C@@H]1CCCN1C(=O)CNC(=O)CNC(=O)[C@H](CO)NC(=O)[C@H](CCCCN)NC(=O)[C@H](CC(C)C)NC(=O)[C@H](Cc1c[nH]c2ccccc12)NC(=O)[C@H](CCC(=O)O)NC(=O)[C@@H](NC(=O)[C@H](Cc1ccccc1)NC(=O)[C@H](CC(=O)O)NC(=O)[C@H](CCC(N)=O)NC(=O)[C@H](C)NC(=O)[C@H](CCCNC(=N)N)NC(=O)[C@H](CCCNC(=N)N)NC(=O)[C@H](CO)NC(=O)[C@H](CCC(=O)O)NC(=O)[C@H](CCSC)NC(=O)[C@H](CCC(N)=O)NC(=O)[C@H](CCCCN)NC(=O)[C@H](CO)NC(=O)[C@H](CC(C)C)NC(=O)[C@H](CC(=O)O)NC(=O)[C@H](CO)NC(=O)[C@@H](NC(=O)[C@H](Cc1ccccc1)NC(=O)[C@@H](NC(=O)CNC(=O)[C@H](CCC(N)=O)NC(=O)[C@@H](CO)NC(=O)[C@@H](N)Cc1c[nH]cn1)[C@@H](C)O)[C@@H](C)O)[C@@H](C)CC)C(N)=O)C(=O)O
On to B1, for which, in the assay with human GLP-1 receptor, the “EC50 hGLP-1R (cAMP formation)” value was 4.9 pM. The “EC50 hGlucagonR (cAMP formation)” value with human glucagon receptor was determined as 33.6 pM.

B2: SEQ ID NO: (80) (peptide)
peptide: H[dS]QGTFTSDLSKQMESRRAQDFIEWLK[Aib]GGPSSGAPPPK([γGlu-Palmitoyl])-NH2
modifications: N-terminus assumed
SMILES: CCCCCCCCCCCCCCCC(=O)N[C@@H](CCC(=O)NCCCC[C@H](NC(=O)[C@@H]1CCCN1C(=O)[C@@H]1CCCN1C(=O)[C@@H]1CCCN1C(=O)[C@H](C)NC(=O)CNC(=O)[C@H](CO)NC(=O)[C@H](CO)NC(=O)[C@@H]1CCCN1C(=O)CNC(=O)CNC(=O)C(C)(C)NC(=O)[C@H](CCCCN)NC(=O)[C@H](CC(C)C)NC(=O)[C@H](Cc1c[nH]c2ccccc12)NC(=O)[C@H](CCC(=O)O)NC(=O)[C@@H](NC(=O)[C@H](Cc1ccccc1)NC(=O)[C@H](CC(=O)O)NC(=O)[C@H](CCC(N)=O)NC(=O)[C@H](C)NC(=O)[C@H](CCCNC(=N)N)NC(=O)[C@H](CCCNC(=N)N)NC(=O)[C@H](CO)NC(=O)[C@H](CCC(=O)O)NC(=O)[C@H](CCSC)NC(=O)[C@H](CCC(N)=O)NC(=O)[C@H](CCCCN)NC(=O)[C@H](CO)NC(=O)[C@H](CC(C)C)NC(=O)[C@H](CC(=O)O)NC(=O)[C@H](CO)NC(=O)[C@@H](NC(=O)[C@H](Cc1ccccc1)NC(=O)[C@@H](NC(=O)CNC(=O)[C@H](CCC(N)=O)NC(=O)[C@@H](CO)NC(=O)[C@@H](N)Cc1c[nH]cn1)[C@@H](C)O)[C@@H](C)O)[C@@H](C)CC)C(N)=O)C(=O)O
Turning to B2, the “EC50 hGLP-1R (cAMP formation)” value with human GLP-1 receptor stood at 10.8 pM. In addition, the “EC50 hGlucagonR (cAMP formation)” value in the assay with human glucagon receptor came out at 38.1 pM.

For the molecule HSQGTFTSDLSKQMEERRAQDFIEWLKNGGPSSGAPPPS-NH2 [SEQ ID NO: (15)], the “EC50 hGLP-1R (cAMP formation)” value with human GLP-1 receptor was 35.2 pM. Also, in the assay with human glucagon receptor, the “EC50 hGlucagonR (cAMP formation)” value amounted to 538 pM.

Turning to H[dS]QGTFTSDLSKQMESRRAQDFIEWLKSGGPSSGAPPPSK([γGlu-Stearoyl])-NH2 [SEQ ID NO: (84)], in the assay with human GLP-1 receptor, the “EC50 hGLP-1R (cAMP formation)” value stood at 3.9 pM. In the assay with human glucagon receptor, the “EC50 hGlucagonR (cAMP formation)” value came out at 13.8 pM.

As to Ac-H[dS]QGTFTSDLSKQMESRRAQDFIEWLKSGGPSSGAPPPSK([γGlu-Palmitoyl])-NH2 [SEQ ID NO: (83)], the “EC50 hGLP-1R (cAMP formation)” value with human GLP-1 receptor was found to be 369 pM. In addition, in the assay with human glucagon receptor, the “EC50 hGlucagonR (cAMP formation)” value is 375 pM.

H[dS]QGTFTSDLSKQMESRRAQDFIEWLKSGGPSSGAPPPSK([γGlu-tocopheryl‑succinyl])-NH2 [SEQ ID NO: (86)]: the “EC50 hGLP-1R (cAMP formation)” value with human GLP-1 receptor amounted to 28.1 pM. Also, the “EC50 hGlucagonR (cAMP formation)” value with human glucagon receptor was 21.8 pM.

B3: SEQ ID NO: (88) (peptide)
peptide: H[dS]QGTFTSDLSKQMESRRAQDFIEWLKSGGPSSGAPPPS[Orn]([γGlu-Palmitoyl])-NH2
modifications: N-terminus assumed
SMILES: CCCCCCCCCCCCCCCC(=O)N[C@@H](CCC(=O)NCCC[C@H](NC(=O)[C@H](CO)NC(=O)[C@@H]1CCCN1C(=O)[C@@H]1CCCN1C(=O)[C@@H]1CCCN1C(=O)[C@H](C)NC(=O)CNC(=O)[C@H](CO)NC(=O)[C@H](CO)NC(=O)[C@@H]1CCCN1C(=O)CNC(=O)CNC(=O)[C@H](CO)NC(=O)[C@H](CCCCN)NC(=O)[C@H](CC(C)C)NC(=O)[C@H](Cc1c[nH]c2ccccc12)NC(=O)[C@H](CCC(=O)O)NC(=O)[C@@H](NC(=O)[C@H](Cc1ccccc1)NC(=O)[C@H](CC(=O)O)NC(=O)[C@H](CCC(N)=O)NC(=O)[C@H](C)NC(=O)[C@H](CCCNC(=N)N)NC(=O)[C@H](CCCNC(=N)N)NC(=O)[C@H](CO)NC(=O)[C@H](CCC(=O)O)NC(=O)[C@H](CCSC)NC(=O)[C@H](CCC(N)=O)NC(=O)[C@H](CCCCN)NC(=O)[C@H](CO)NC(=O)[C@H](CC(C)C)NC(=O)[C@H](CC(=O)O)NC(=O)[C@H](CO)NC(=O)[C@@H](NC(=O)[C@H](Cc1ccccc1)NC(=O)[C@@H](NC(=O)CNC(=O)[C@H](CCC(N)=O)NC(=O)[C@@H](CO)NC(=O)[C@@H](N)Cc1c[nH]cn1)[C@@H](C)O)[C@@H](C)O)[C@@H](C)CC)C(N)=O)C(=O)O
B3: the “EC50 hGLP-1R (cAMP formation)” value with human GLP-1 receptor was determined as 5.1 pM. Besides, in the assay with human glucagon receptor, the “EC50 hGlucagonR (cAMP formation)” value came to 18.2 pM.

Regarding H[dS]QGTFTSDLSKQMESRRAQDFIEWLKSGGPSSGAPPPS[Dab]([γGlu-Palmitoyl])-NH2 [SEQ ID NO: (89)], the “EC50 hGLP-1R (cAMP formation)” value with human GLP-1 receptor was determined as 5.9 pM. Moreover, in the assay with human glucagon receptor, the “EC50 hGlucagonR (cAMP formation)” value turned out to be 19.8 pM.

Take GH[dS]QGTFTSDLSKQMESRRAQDFIEWLKSGGPSSGAPPPSK([γGlu-Palmitoyl])-NH2 [SEQ ID NO: (82)]: the “EC50 hGLP-1R (cAMP formation)” value in the assay with human GLP-1 receptor is 2590 pM. Moreover, the “EC50 hGlucagonR (cAMP formation)” value with human glucagon receptor came out at 5520 pM.

B4: SEQ ID NO: (91) (peptide)
peptide: H[dS]QGTFTSDLSKQMESRRARLFIEWLKSGGPSSGAPPPSK([γGlu-Palmitoyl])-NH2
modifications: N-terminus assumed
SMILES: CCCCCCCCCCCCCCCC(=O)N[C@@H](CCC(=O)NCCCC[C@H](NC(=O)[C@H](CO)NC(=O)[C@@H]1CCCN1C(=O)[C@@H]1CCCN1C(=O)[C@@H]1CCCN1C(=O)[C@H](C)NC(=O)CNC(=O)[C@H](CO)NC(=O)[C@H](CO)NC(=O)[C@@H]1CCCN1C(=O)CNC(=O)CNC(=O)[C@H](CO)NC(=O)[C@H](CCCCN)NC(=O)[C@H](CC(C)C)NC(=O)[C@H](Cc1c[nH]c2ccccc12)NC(=O)[C@H](CCC(=O)O)NC(=O)[C@@H](NC(=O)[C@H](Cc1ccccc1)NC(=O)[C@H](CC(C)C)NC(=O)[C@H](CCCNC(=N)N)NC(=O)[C@H](C)NC(=O)[C@H](CCCNC(=N)N)NC(=O)[C@H](CCCNC(=N)N)NC(=O)[C@H](CO)NC(=O)[C@H](CCC(=O)O)NC(=O)[C@H](CCSC)NC(=O)[C@H](CCC(N)=O)NC(=O)[C@H](CCCCN)NC(=O)[C@H](CO)NC(=O)[C@H](CC(C)C)NC(=O)[C@H](CC(=O)O)NC(=O)[C@H](CO)NC(=O)[C@@H](NC(=O)[C@H](Cc1ccccc1)NC(=O)[C@@H](NC(=O)CNC(=O)[C@H](CCC(N)=O)NC(=O)[C@@H](CO)NC(=O)[C@@H](N)Cc1c[nH]cn1)[C@@H](C)O)[C@@H](C)O)[C@@H](C)CC)C(N)=O)C(=O)O
On to B4, for which, in the assay with human GLP-1 receptor, the “EC50 hGLP-1R (cAMP formation)” value stood at 6.7 pM. Also, in the assay with human glucagon receptor, the “EC50 hGlucagonR (cAMP formation)” value turned out to be 121 pM.

B5: SEQ ID NO: (79) (peptide)
peptide: H[dS]QGTFTSDLSKQMESRAAQLFIEWLKAGGPSSGAPPPSK([γGlu-Palmitoyl])-NH2
modifications: N-terminus assumed
SMILES: CCCCCCCCCCCCCCCC(=O)N[C@@H](CCC(=O)NCCCC[C@H](NC(=O)[C@H](CO)NC(=O)[C@@H]1CCCN1C(=O)[C@@H]1CCCN1C(=O)[C@@H]1CCCN1C(=O)[C@H](C)NC(=O)CNC(=O)[C@H](CO)NC(=O)[C@H](CO)NC(=O)[C@@H]1CCCN1C(=O)CNC(=O)CNC(=O)[C@H](C)NC(=O)[C@H](CCCCN)NC(=O)[C@H](CC(C)C)NC(=O)[C@H](Cc1c[nH]c2ccccc12)NC(=O)[C@H](CCC(=O)O)NC(=O)[C@@H](NC(=O)[C@H](Cc1ccccc1)NC(=O)[C@H](CC(C)C)NC(=O)[C@H](CCC(N)=O)NC(=O)[C@H](C)NC(=O)[C@H](C)NC(=O)[C@H](CCCNC(=N)N)NC(=O)[C@H](CO)NC(=O)[C@H](CCC(=O)O)NC(=O)[C@H](CCSC)NC(=O)[C@H](CCC(N)=O)NC(=O)[C@H](CCCCN)NC(=O)[C@H](CO)NC(=O)[C@H](CC(C)C)NC(=O)[C@H](CC(=O)O)NC(=O)[C@H](CO)NC(=O)[C@@H](NC(=O)[C@H](Cc1ccccc1)NC(=O)[C@@H](NC(=O)CNC(=O)[C@H](CCC(N)=O)NC(=O)[C@@H](CO)NC(=O)[C@@H](N)Cc1c[nH]cn1)[C@@H](C)O)[C@@H](C)O)[C@@H](C)CC)C(N)=O)C(=O)O
With B5, the “EC50 hGLP-1R (cAMP formation)” value with human GLP-1 receptor is 3.7 pM. Further, the “EC50 hGlucagonR (cAMP formation)” value with human glucagon receptor came to 195 pM.

With H[dS]QGTFTSDLSKQMESRRAQDFIEWLK[Aib]GGPSSGAPPPK(Palmitoyl)-NH2 [SEQ ID NO: (81)], in the assay with human GLP-1 receptor, the “EC50 hGLP-1R (cAMP formation)” value is 19.7 pM. In the assay with human glucagon receptor, the “EC50 hGlucagonR (cAMP formation)” value came to 29.3 pM.

As to H[dS]QGTFTSDLSKQMESRRAQDFIEWLKSGGPSSGAPPPSK(Stearoyl)-NH2 [SEQ ID NO: (85)], the “EC50 hGLP-1R (cAMP formation)” value with human GLP-1 receptor is 6.4 pM. Moreover, the “EC50 hGlucagonR (cAMP formation)” value with human glucagon receptor is 9 pM.

With HSQGTFTSDLSKQMDERRAQDFIEWLKNGGPSSGAPPPS-NH2 [SEQ ID NO: (5)], the “EC50 hGLP-1R (cAMP formation)” value with human GLP-1 receptor stood at 16.6 pM. Also, in the assay with human glucagon receptor, the “EC50 hGlucagonR (cAMP formation)” value is 67 pM.
